Experimental findings from patent US20120149645A1, “COMPOSITIONS AND MODULATION OF MYOCYTE ENHANCER FACTOR 2 (MEF2)” (EMORY UNIVERSITY, priority 2010, published 2012) are described below.

In one assay the test system is MEF2D binding to ND6. Kind of assay: ChIP assay of MEF2D binding to the ND6 MEF2 site in purified mitochondria. In kind it is cell-based, mouse. Conditions: construct over-expressed in SN4741 cells. From the text: (§1) (A) Mitochondria-targeting MEF2D (Mt2D) and mitochondria-targeting dominant-negative MEF2D (Mt2Ddn), which lacks the transactivation domain (TAD). […] Control indicates the control vector group. (C) Effects of Mt2D or Mt2Ddn on ND6 expression in SN4741 cells. Over-expression of Mt2Ddn in SN4741 cells reduced ND6 but not PPAR-γ coactivator 1 (PGC1) expression by western blotting (n=4, **p<0.01). Control indicates the control vector group. (D) Effects of over-expression of Mt2D or Mt2Ddn on mRNA levels of mitochondria encoded genes. […] Control indicates the control vector group. (E) Effects of Mt2D or Mt2Ddn on mtDNA L-strand transcription initiation in vitro (n=3; **P<0.01). A human mtDNA fragment containing mitochondrial L-strand promoter (LSP) and ND6 gene was used in the in vitro transcription assay. […] (F) Effects of Mt2D or Mt2Ddn on mtDNA de novo transcription in vivo (n=3; **P<0.01). Control (−) is without primers. Control (+) indicates the control vector group.
(§2) (A) Reduced binding of MEF2D to ND6 after neurotoxin treatment. SN4741 cells were treated with MPP+ (25 μM) or rotenone (Rot, 100 nM) for 12 hours. […] Control indicates untreated. […] Control indicates untreated. (C) Immunocytochemical analysis of mitochondrial MEF2D after MPP+ and rotenone treatment. SN4741 cells treated as described in (A) were stained (scale bar, 10 μm). […] Experiments were repeated four times. Control indicates untreated. […] SN4741 cells were treated with MPP+ after infection with the control, Mt2Ddn or Mt2DVP16 or MtND6 lentiviruses for 24 hours (upper graph: different doses of MPP+ for 24 hours; lower graph: 5 μM of MPP+ for different times). Cell viability was measured by WST-1 assay (n=4; *p<0.05; **P<0.01). Control indicates the control vector group.
Andres et al., J Biol Chem, 1995, 270:23246-23249. Moreover, this putative MEF2 binding site is conserved among several species. To test whether MEF2D binds to this putative MEF2 site, electronic mobility shift assay (EMSA) was performed. N-terminal MEF2D formed a complex with the labeled probe containing the ND6 MEF2 site. […] To corroborate this finding, a chromatin immunoprecipitation (ChIP) assay was carried out using highly purified mitochondria. […] ND6 but not ND2 based primers could amplify the bound sequence (FIG. 3C). Sequence analysis of the DNA bound by MEF2D after amplification confirmed the presence of the ND6 MEF2 site (FIG. 3D).

Assay [1] concerns SN4741 cells. The experiment in a line: Subcellular localization of over-expressed MEF2D constructs. Type of assay: cell-based, mouse. As to conditions: over-expressed in SN4741 cells. From the text:
(A) Lack of mitochondrial localization by ΔN30MEF2D. […] VDAC, PARP and c-Raf are Mt, Nu and Cy markers, respectively. Control indicates the control vector group. (B) Immunocytochemistry analysis of mitochondrial localization of transfected Flag-MEF2D. […] Experiments were repeated four times. (C, D) Requirement of mtHsp70 for mitochondria-targeting of MEF2D (n=4; **p<0.01). Control indicates untreated. […]. Knocking down mouse mtHsp70 by siRNA reduced MEF2D level in purified mitochondria from SN4741 cells (C). […] MnSOD is a known mtHsp70-imported mitochondrial matrix protein.
(§3) (A) Diagrams of Mt2DVP16 and MtND6. Mt2DVP16 was constructed by fusion of transactivation domain (TAD) of VP16 with DNA-binding domain of MEF2D and a mitochondria-targeting sequence (Mito). […] (C) Over-expression of Mt2DVP16 attenuated MEF2D siRNA-induced reduction of ND6 expression (n=3, **P<0.01).
Control indicates the group co-tranfected with control vector.
SN4741 cells or primary midbrain DA neurons were plated on glass slides in 24-well plates. Localizations of endogenous and exogenous MEF2D were visualized on a Zeiss LSM5 PASCAL confocal microscope. […] Quantification of colocalization of signals was done using “Colocalization Analysis” program of software Image Pro (Media Cybernetics). […]

Assay [2] relates to SN4741 cells. The experiment in a line: PI (propidium iodide) staining of cell death. Type of assay: cell-based, mouse. As to conditions: SN4741 cells infected with lentivirus 24 hours, then MPP+ 5 μM for 24 hours. On the procedure:
(A) SN4741 cells were infected with lentiviruses for 24 hours and followed by exposure to MPP+ (5 μM) for 24 hours. Cell death was analyzed by PI (propidium iodide) staining (n=4; scale bar, 30 μm). The control indicated the control vector. (B) Quantification of the number of PI positive cells in (A) (n=50 cells, **P<0.01). Experiments were repeated four times. Control indicates the group transfected with the control vector.

Assay [3] has as its system SN4741 cells. Kind of assay: WST-1 cell viability assay. Type of assay: cell-based, mouse. As for the experimental part:
as §2
WST-1 assay was done using a kit (cat. no. 11644807001) from Roche and following procedures provided by the manufacturer. WST-1 (4-[3-(4-Iodophenyl)-2-(4-nitrophenyl)-2H-5-tetrazolio]-1,3-benzene disulfonate) is a water-soluble tetrazolium salt whose cleavage by cellular enzymes correlates with cell viability. Cells were seeded in 96-well plates and treated as indicated. Than 10 μl/well of premixed WST-1 Cell Proliferation Reagent was added, and the cells were incubated for an additional 4 hr under the same conditions. Absorbance at 450 nm was measured on a multi-well plate reader (Bio-Tek).

The test system of assay [4] is human mtDNA fragment containing mitochondrial L-strand promoter (LSP) and ND6 gene. The experiment in a line: In vitro mtDNA L-strand transcription assay. Type of assay: biochemical.
Description: as §1

Another assay deals with MEF2D and ND6 proteins. The experiment in a line: Western blotting of MEF2D, ND6 and PGC1 protein levels in SN4741 cells. Type of assay: cell-based, mouse. As to conditions: construct over-expressed in SN4741 cells.
Description: as §1, §2, §3
Background: A western blot detects proteins with antibodies after separation by electrophoresis.

B1: Mt2Ddn: Mitochondria-targeting dominant-negative MEF2D: mouse MEF2D 1-131aa with mitochondria-targeting signal, lacks the transactivation domain (protein, UniProt Q63943 1-131, looked up, fragment)
chain: MGRKKIQIQRITDERNRQVTFTKRKFGLMKKAYELSVLCDCEIALIIFNHSNKLFQYASTDMDKVLLKYTEYNEPHESRTNADIIETLRKKGFNGCDSPEPDGEDSLEQSPLLEDKYRRASEELDGLFRRY
modifications: mitochondria-targeting signal added
In the case of B1, in the assay with MEF2D binding to ND6, the “binding of full length MEF2D to the ND6 MEF2 site” value was “modulated”. Also, the “mitochondrial localization by immunocytochemical staining (MitoTracker)” value in the assay with SN4741 cells [1] is given as “targeted exclusively to mitochondria”. Moreover, the “number of propidium iodide (PI) positive cells” value in the assay on SN4741 cells [2] is on record as “increases”. For the same molecule, the “sensitivity of cells to low dose MPP+ toxicity” value in the assay with SN4741 cells [3] (SN4741 cells infected with lentivirus 24 hours, then different doses of MPP+ for 24 hours) is on record as “clearly sensitized”. Moreover, the “cellular viability over time” value in the assay on SN4741 cells [3] (SN4741 cells infected with lentivirus, 5 μM MPP+ for different times) was “impaired”. Besides, in assay [4], the “level of L-strand promoter (LSP) transcripts” value is reported as “reduces”. Also, in the assay on MEF2D and ND6 proteins, the “ND6 protein level / expression” value was “marked reduction” and the “level of PGC1 (nuclear target of MEF2)” value is “did not alter”.
